Laboratory results published in patent US20040071707A1, “Modulation of cell growth” (priority 2000, published 2004).

B1: K2P-PMSF: proteolytically inactivated K2P (protease domain inactivated with PMSF) (protein)
chain: SYQVICRDEKTQMIYQQHQSWLRPVLRSNRVEYCWCNSGRAQCHSVPVKSCSEPRCFNGGTCQQALYFSDFVCQCPEGFAGKCCEIDTRATCYEDQGISYRGTWSTAESGAECTNWNSSALAQKPYSGRRPDAIRLGLGNHNYCRNPDRDSKPWCYVFKAGKYSSEFCSTPACSEGNSDCYFGNGSAYRGTHSLTESGASCLPWNSMILIGKVYTAQNPSAQALGLGKHNYCRNPDGDAKPWCHVLKNRRLTWEYCDVPSCSTCGLRQYSQPQFRIKGGLFADIASHPWQAAIFAKHRRSPGERFLCGGILISSCWILSAAHCFQERFPPHHLTVILGRTYRVVPGEEEQKFEVEKYIVHKEFDDDTYDNDIALLQLKSDSSRCAQESSVVRTVCLPPADLQLPDWTECELSGYGKHEALSPFYSERLKEAHVRLYPSSRCTSQHLLNRTVTDNMLCAGDTRSGGPQANLHDACQGDSGGPLVCLNDGRMTLVGIISWGLGCGQKDVPGVYTKVTNYLDWIRDNMRP
B2: kringle 2: kringle 2 domain of tPA purified from K2P by limited elastase digestion and lysine-Sepharose (protein)
chain: CYFGNGSAYRGTHSLTESGASCLPWNSMILIGKVYTAQNPSAQALGLGKHNYCRNPDGDAKPWCHVLKNRRLTWEYCDVPSC
B3: rsctPA: Recombinant single chain tPA (protein)
chain: B1 chain

Key:
HVSMC = HVSMC growth (proliferation assay); type: cell-based, Human
Procedure: (A and B). HUVEC or HVSMC cultures were incubated with increasing concentrations of PMSF inactivated K2P (K2P-PMSF) or control treated K2P either in the absence (A) or presence (B) of 10 ng/mL bFGF at the concentrations indicated. Angiostatin was included as a positive control for inhibition of bFGF mediated cell growth. HUVEC results represent mean of at least three independent experiments with three different batches of HUVEC. Experiments with HVSMC were repeated twice. (C and D). HUVEC were treated with 100 μg/mL K2P-PMSF and increasing concentrations of either anti-kringle 2 antibody, 7VPA (C) or rsctPA (D) for four days as indicated. Control wells contained M199 and 2% FBS alone. Data represent mean±SE of duplicate experiments with two different batches of HUVEC. […]
3×10^3 cells were plated in 96-well plates and allowed to attach overnight. […] After 4 days of incubation cell number was quantified colorimetrically by the addition of 20 μL CellTiter 96 AQueous One Solution Cell Proliferation Assay (Promega) at 492 nm and 620 nm reference filter. Background absorbance was determined with substrate alone and subtracted from all wells.

HUVEC = assay: In vitro endothelial cell proliferation assay; type: cell-based, Human; details: for bFGF induced EC growth: 10 ng/mL bFGF, non-toxic doses (<40 μg/mL) for K2P fragments; for effect on basal HUVEC/EC growth (substance alone): M199 with 2% FBS, 4 days, colorimetric
Procedure: Human umbilical vein endothelial cells (HUVEC) were purchased from Clonetics or isolated from umbilical vein cords by mild collagenase treatment as described and cultured in M199 with Earle's salts (Sigma) with 20% heat inactivated fetal bovine serum (Sigma), 100 IU/mL penicillin 100 μg/mL streptomycin (Gibco), 250 ng/mL fungizone (Gibco), 2 mM glutamine (Gibco), 5 IU/mL heparin (Sigma) and 50 μg/mL ECGS (Technoclone, Vienna, Austria). Human vascular smooth muscle cells (HVSMC) were isolated as described.
3×10^3 cells were plated in 96-well plates and allowed to attach overnight. Growth was arrested by incubation with 100 μL reduced growth medium (M199 with 2% FBS) for 24 h. Thereafter anti-tPA antibodies and other reagents were added to wells. K2P (Reteplase), anti-kringle 2 (7VPA) and anti-finger/EGF antibodies (3VPA and 6VPA) were a gift from Technoclone, Vienna, Austria. Anti-kringle 1 (PAM-2), anti-kringle 2 (ESP1) and anti-protease (374B and ESP2) antibodies were purchased from American Diagnostica, Alpha Labs, UK. D-mannitol and LY294002 were obtained from Sigma. VEGF121 and bFGF were purchased from R&D Systems Inc., UK. Recombinant single chain tPA (rsctPA) was obtained from Boehringher Ingelheim. The mutant alatPA was kindly provided by Prof. Roger Lijnen (Center for Molecular and Vascular Biology, Leuven, Belgium). Aprotinin was purchased from Boehringer Mannheim. The tPA peptides (tPA I and tPA II) corresponding to residues 7-17 and 15-26 respectively were synthesized by the Clinical Sciences Centre peptide synthesis facility at Hammersmith and the ICRF peptide unit. Rp-cAMPS and Lavendustin A were obtained from Calbiochem, UK. After 4 days of incubation cell number was quantified colorimetrically by the addition of 20 μL CellTiter 96 AQueous One Solution Cell Proliferation Assay (Promega) at 492 nm and 620 nm reference filter. Background absorbance was determined with substrate alone and subtracted from all wells.
HUVEC were plated at 1×10^5 cells in 12 well plates overnight. Medium was replaced with reduced growth medium overnight followed by addition of anti-K2 antibody. Control wells contained M199 and 2% FBS alone. After 3 days incubation cells were counted in a hemocytometer.

| Molecule | HVSMC growth in the presence of bFGF (HVSMC; 10 ng/mL bFGF) | basal HVSMC growth, % of control (HVSMC; highest concentration used (100 μg/mL)) | bFGF induced EC growth (HUVEC) | concentration giving 50% inhibition (HUVEC; HUVEC growth, bFGF 10 ng/mL (FIG. 4B)) [µg/mL] | effect on basal HUVEC/EC growth (substance alone) (HUVEC) | VEGF stimulated HUVEC growth (HUVEC; 10 ng/mL VEGF) |
| --- | --- | --- | --- | --- | --- | --- |
| B1 | No inhibition | 65 % of control | completely inhibited | 30 | inhibited |  |
| B2 |  |  | significantly inhibited |  | significantly inhibited | significantly inhibited |
| B3 |  |  |  |  | neither rsctPA nor alatPA could stimulate EC growth |  |
